The values below come from patent US20140221611A1.

In test [1] the target is REFACTO® factor VIII-like polypeptide (amino acids 1-743 and 1638 through 2332 of human factor VIII) (human) (UniProt P00451). The test is described as follows: affinity column of immobilised peptide; fractions by RP-HPLC.
Test [2] shares this target. The test is described as follows: affinity column of immobilised peptide; fractions by factor VIII activity assay.
The target is the same in test [3]. The test is described as follows: phage ELISA. Background: An ELISA detects its analyte on a solid surface through an enzyme-linked reagent.
For test [4] the target is unchanged. Nature of the test: phage ELISA, anti-M13-HRP.

Positions of bridges follow the written chain, without caps; N, C: chain ends. No end group written: not given here. *: point of attachment. NHNH2 = NN*

Chain of REFACTO® factor VIII-like polypeptide (amino acids 1-743 and 1638 through 2332 of human factor VIII) (human) (P00451 20-762, chain 1 of 2): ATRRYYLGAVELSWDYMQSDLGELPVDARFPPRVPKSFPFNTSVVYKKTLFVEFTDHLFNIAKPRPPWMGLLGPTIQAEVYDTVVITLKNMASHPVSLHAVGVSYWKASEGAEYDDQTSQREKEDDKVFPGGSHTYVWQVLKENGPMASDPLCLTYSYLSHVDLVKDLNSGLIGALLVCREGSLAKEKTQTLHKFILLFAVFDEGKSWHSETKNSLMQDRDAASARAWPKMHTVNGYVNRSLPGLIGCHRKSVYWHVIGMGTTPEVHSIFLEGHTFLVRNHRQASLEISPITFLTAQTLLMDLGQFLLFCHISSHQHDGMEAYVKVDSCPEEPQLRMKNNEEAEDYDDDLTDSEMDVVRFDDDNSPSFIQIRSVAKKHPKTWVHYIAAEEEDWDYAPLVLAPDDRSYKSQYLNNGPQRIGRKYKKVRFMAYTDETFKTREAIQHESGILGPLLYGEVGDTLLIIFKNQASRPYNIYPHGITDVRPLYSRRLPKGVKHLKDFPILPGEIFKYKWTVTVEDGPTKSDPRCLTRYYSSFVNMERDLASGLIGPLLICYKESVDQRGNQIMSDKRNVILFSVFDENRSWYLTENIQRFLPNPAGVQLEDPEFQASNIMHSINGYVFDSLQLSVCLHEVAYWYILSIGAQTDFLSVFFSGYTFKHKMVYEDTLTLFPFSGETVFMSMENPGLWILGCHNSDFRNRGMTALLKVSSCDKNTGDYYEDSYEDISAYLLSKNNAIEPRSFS
Chain of REFACTO® factor VIII-like polypeptide (amino acids 1-743 and 1638 through 2332 of human factor VIII) (human) (P00451 1657-2351, chain 2 of 2): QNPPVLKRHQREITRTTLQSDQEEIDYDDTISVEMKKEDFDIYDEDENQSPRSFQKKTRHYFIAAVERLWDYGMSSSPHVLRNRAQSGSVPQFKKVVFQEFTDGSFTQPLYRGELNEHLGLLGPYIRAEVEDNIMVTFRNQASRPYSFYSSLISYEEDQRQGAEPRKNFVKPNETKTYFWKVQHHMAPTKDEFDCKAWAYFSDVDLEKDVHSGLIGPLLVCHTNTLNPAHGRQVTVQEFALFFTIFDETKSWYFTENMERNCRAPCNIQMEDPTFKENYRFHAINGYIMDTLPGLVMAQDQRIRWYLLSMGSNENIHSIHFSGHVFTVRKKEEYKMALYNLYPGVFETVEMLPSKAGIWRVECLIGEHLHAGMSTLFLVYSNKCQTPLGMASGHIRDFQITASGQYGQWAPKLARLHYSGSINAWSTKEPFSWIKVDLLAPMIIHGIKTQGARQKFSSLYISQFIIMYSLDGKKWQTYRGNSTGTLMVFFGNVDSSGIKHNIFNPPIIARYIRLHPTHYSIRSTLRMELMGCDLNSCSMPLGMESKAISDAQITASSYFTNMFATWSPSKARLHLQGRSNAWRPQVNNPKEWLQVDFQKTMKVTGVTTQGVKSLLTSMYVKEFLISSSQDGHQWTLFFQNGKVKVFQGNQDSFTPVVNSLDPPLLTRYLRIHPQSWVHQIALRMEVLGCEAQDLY

Take AEGTGDFHCIGVWFCLHDPGPEGGGS-NHNH2 (disulfide 9-15 (inferred)) [Affinity ligand CS-455]: in test [1], the % recovery in Elution A was 1.4%, the % recovery in Elution B is 0%, the % recovery in Flow was determined as 65.8% and the % recovery in pH 2 stood at 0%. In test [2], this molecule returned a % recovery in Elution A of 1.3% and a % recovery in Flow of 61.6%.

As to HRCGSWLHPCLA [TN8 isolate 11/G10 (phage-displayed peptide, SEQ ID NO: 21)], the R (ratio of the ELISA score with target present to the ELISA score without target) in test [3] is 6. The same molecule returned an ELISA signal in test [4] of 0.3 OD630.

As to AEGTGDHLCGAWFRPCDADPGPEGGGS-NHNH2 (disulfide 9-16 (inferred)) [Affinity ligand CS-454], in test [1], the % recovery in Elution A is 45.1%, the % recovery in Elution B amounted to 0%, the % recovery in Flow is 2.5% and the % recovery in pH 2 turned out to be 0%. In test [2], this molecule showed a % recovery in Elution A of 42.4% and a % recovery in Flow of 2.2%.

With FCWVFAFDHCH [TN9/1 isolate … (SEQ ID NO: 71)], the R (ratio of the ELISA score with target present to the ELISA score without target) in test [3] amounted to 24.

On to HACGSWFRPCHA [TN8 isolate 07 (phage-displayed peptide, SEQ ID NO: 15)], for which, in test [3], the R (ratio of the ELISA score with target present to the ELISA score without target) worked out at 6. Also, the ELISA signal in test [4] is 0.4 OD630.

For HGCGAWFRPCHA [TN8 isolate 01 (phage-displayed peptide, SEQ ID NO: 18)], in test [4], the ELISA signal came to 0.2 OD630.

Turning to FCWVFNWVHCD [TN9/1 isolate … (SEQ ID NO: 75)], the R (ratio of the ELISA score with target present to the ELISA score without target) in test [3] is 14.

In turn, FCWVHPFAHCL [TN9 isolate 02 (phage-displayed peptide, SEQ ID NO: 23)] displayed an ELISA signal in test [4] of 0.2 OD630.

In test [1], AEGTGDHPCGSWLRPCLHDPGPEGGGS-NHNH2 (disulfide 9-16 (inferred)) [Affinity ligand CS-453] yielded a % recovery in Elution A of 43.2%, a % recovery in Elution B of 0%, a % recovery in Flow of 0% and a % recovery in pH 2 of 0%. In test [2], this molecule yielded a % recovery in Elution A of 26.4% and a % recovery in Flow of 0%.

As to FCHVFHFSHCD [TN9 isolate 01 (phage-displayed peptide, SEQ ID NO: 24)], in test [4], the ELISA signal is 0.2 OD630.

With RLCSWISPCSA [TN7 isolate D04 (phage-displayed peptide, SEQ ID NO: 7)], in test [3], the R (ratio of the ELISA score with target present to the ELISA score without target) is 6. Also, the ELISA signal in test [4] stood at 0.3 OD630.

For FCHVFNFVHCS [TN9 isolate 01 (phage-displayed peptide, SEQ ID NO: 31)], the R (ratio of the ELISA score with target present to the ELISA score without target) in test [3] was found to be 8. Besides, the ELISA signal in test [4] was 0.5 OD630.

In the case of FCWVFPFQHCA [TN9 isolate 09 (phage-displayed peptide, SEQ ID NO: 29)], the R (ratio of the ELISA score with target present to the ELISA score without target) in test [3] was found to be 24. This molecule gave an ELISA signal in test [4] of 1.1 OD630.

Regarding PHCNWLFPCSL [TN7 isolate D03 (phage-displayed peptide, SEQ ID NO: 6)], the ELISA signal in test [4] stood at 0.2 OD630.

In test [1], AEGTGDFCWVFPFQHCADPGPEGGGS-NHNH2 (disulfide 8-16 (inferred)) [Affinity ligand CS-459] returned a % recovery in Elution A of 42.1%, a % recovery in Elution B of 0%, a % recovery in Flow of 1.6% and a % recovery in pH 2 of 0%. In test [2], this molecule returned a % recovery in Elution A of 31.2% and a % recovery in Flow of 6.4%.

For HPCGSWFRPCFH [TN8 isolate 02 (phage-displayed peptide, SEQ ID NO: 14)], the R (ratio of the ELISA score with target present to the ELISA score without target) in test [3] amounted to 16. The ELISA signal in test [4] is 0.7 OD630.

Turning to FGCSWLFPCPF [TN7 isolate A08 (phage-displayed peptide, SEQ ID NO: 5)], the R (ratio of the ELISA score with target present to the ELISA score without target) in test [3] came out at 8. In test [4], this molecule registered an ELISA signal of 0.4 OD630.

On to RGCGSWLRPCLD [TN8 isolate 05 (phage-displayed peptide, SEQ ID NO: 11)], for which the ELISA signal in test [4] was determined as 0.2 OD630.

Consider HPCGAWFNPCPR [TN8 isolate 01 (phage-displayed peptide, SEQ ID NO: 19)], for which, in test [4], the ELISA signal amounted to 0.2 OD630.

As for HLCGAWFRPCDA [TN8 isolate 02 (phage-displayed peptide, SEQ ID NO: 16)], the R (ratio of the ELISA score with target present to the ELISA score without target) in test [3] worked out at 6. Besides, the ELISA signal in test [4] was 0.4 OD630.

For FCWVFPFNHCS [TN9 isolate 12 (phage-displayed peptide, SEQ ID NO: 28)], the R (ratio of the ELISA score with target present to the ELISA score without target) in test [3] was determined as 18. For the same molecule, the ELISA signal in test [4] came out at 1 OD630.

For HPCGSWLRPCLH [TN8 isolate 10 (phage-displayed peptide, SEQ ID NO: 10)], the R (ratio of the ELISA score with target present to the ELISA score without target) in test [3] is 16. The molecule further gave an ELISA signal in test [4] of 1 OD630.

On to HLCFAWFRPCDA [TN8 isolate 12 (phage-displayed peptide, SEQ ID NO: 17)], for which the R (ratio of the ELISA score with target present to the ELISA score without target) in test [3] is 8. In test [4], this molecule displayed an ELISA signal of 0.4 OD630.

For HPCGAWLRPCYN [TN8 isolate 08 (phage-displayed peptide, SEQ ID NO: 20)], the R (ratio of the ELISA score with target present to the ELISA score without target) in test [3] is 20. In test [4], this molecule had an ELISA signal of 1 OD630.

In test [1], AEGTGDFCWVFAFDHCHDPGPEGGGS-NHNH2 (disulfide 8-16 (inferred)) [Affinity ligand CS-458] showed a % recovery in Elution A of 54.3%, a % recovery in Elution B of 0%, a % recovery in Flow of 1.8% and a % recovery in pH 2 of 0%. Besides, in test [2], the % recovery in Elution A came out at 55.6% and the % recovery in Flow amounted to 1.4%.

As to AEGTGDFCWVFPFHHCFDPGPEGGGS-NHNH2 (disulfide 8-16 (inferred)) [Affinity ligand CS-460], in test [1], the % recovery in Elution A is 28.8%, the % recovery in Elution B came out at 0%, the % recovery in Flow is 24.6% and the % recovery in pH 2 is 0%. In test [2], the % recovery in Elution A was 0% and the % recovery in Flow worked out at 28.4%.

As for HPCGSWLHPCAA [TN8 isolate 04 (phage-displayed peptide, SEQ ID NO: 12)], the R (ratio of the ELISA score with target present to the ELISA score without target) in test [3] came out at 6. In test [4], this molecule displayed an ELISA signal of 0.3 OD630.

Regarding FCWVFPFHHCF [TN9 isolate 06 (phage-displayed peptide, SEQ ID NO: 30)], the R (ratio of the ELISA score with target present to the ELISA score without target) in test [3] stood at 6. The molecule further showed an ELISA signal in test [4] of 0.3 OD630.

In test [4], FHCIGVWFCLH [TN7 isolate A09 (phage-displayed peptide, SEQ ID NO: 8)] had an ELISA signal of 0.1 OD630.

Take FCWVFNFSHCS [TN9 isolate 03 (phage-displayed peptide, SEQ ID NO: 26)]: in test [3], the R (ratio of the ELISA score with target present to the ELISA score without target) was determined as 24. Also, in test [4], the ELISA signal is 1.1 OD630.

For the molecule RLCSWVSPCSA [TN7 isolate C5/G10 (phage-displayed peptide, SEQ ID NO: 9)], the R (ratio of the ELISA score with target present to the ELISA score without target) in test [3] came to 10. Further, the ELISA signal in test [4] was 0.5 OD630.

In test [4], FCHVFPFLHCD [TN9 isolate 11 (phage-displayed peptide, SEQ ID NO: 32)] displayed an ELISA signal of 0.2 OD630.

HPCGSWFNPCAH [TN8 isolate 02 (phage-displayed peptide, SEQ ID NO: 13)]: the R (ratio of the ELISA score with target present to the ELISA score without target) in test [3] worked out at 8. Further, the ELISA signal in test [4] worked out at 0.3 OD630.

In test [1], AEGTGDFGCSWLFPCPFDPGPEGGGS-NHNH2 (disulfide 9-15 (inferred)) [Affinity ligand CS-456] yielded a % recovery in Elution A of 44.8%, a % recovery in Elution B of 0%, a % recovery in Flow of 3.4% and a % recovery in pH 2 of 0%. In addition, in test [2], the % recovery in Elution A is 43% and the % recovery in Flow stood at 4.8%.

On to FCWVFQFRHCH [TN9/1 isolate … (SEQ ID NO: 77)], for which the R (ratio of the ELISA score with target present to the ELISA score without target) in test [3] amounted to 8.

For FCWVFPFNHCD [TN9 isolate 02 (phage-displayed peptide, SEQ ID NO: 27)], in test [3], the R (ratio of the ELISA score with target present to the ELISA score without target) turned out to be 8. The molecule also came in with an ELISA signal in test [4] of 0.4 OD630.

As for HSCGSWLFPCFA [TN7 isolate A06 (phage-displayed peptide, SEQ ID NO: 4)], the R (ratio of the ELISA score with target present to the ELISA score without target) in test [3] worked out at 10. In test [4], this molecule gave an ELISA signal of 0.5 OD630.
